The target in test [1] is HMM-mfMSR1 (monkey MSR1 extracellular domain). Description: Biacore surface plasmon resonance binding kinetics of anti-MSR1 mAbs, antibody-capture format. As to conditions: analyte HMM-mfMSR1, NB = no binding observed; for kd: * = no dissociation observed, kd manually fixed at 1.00E−05; for ka: antibody-capture format; for Kd: calculated from kinetic rates; for t½: dissociative half-life. The method, then:
(§1) Binding affinities and kinetic constants of human anti-MSR1 antibodies for different MSR1 reagents were determined by real-time surface plasmon resonance (Biacore 4000). All binding studies were performed in 10 mM HEPES, 150 mM NaCl, 3 mM EDTA, and 0.05% v/v Surfactant Tween-20, pH 7.4 (HBS-ET) running buffer at 25° C. and 37° C.
(§2) The association rate (ka) and dissociation rate (kd) were determined by fitting the real-time binding sensorgrams to a 1:1 binding model with mass transport limitation using Scrubber 2.0c curve-fitting software. Binding dissociation equilibrium constant (KD) and dissociative half-life (t½) were calculated from the kinetic rates as: […]

Test [2] concerns the target T1, His9-hMSR1 (human MSR1 extracellular domain) (Homo sapiens, UniProt P21757).
T1 construct: human MSR1 extracellular domain expressed with a N-terminal nonahistidine tag; His9 (nonahistidine) (N); purchased R&D Systems 2708-MS
T1 sequence (P21757 77-451 limits assumed): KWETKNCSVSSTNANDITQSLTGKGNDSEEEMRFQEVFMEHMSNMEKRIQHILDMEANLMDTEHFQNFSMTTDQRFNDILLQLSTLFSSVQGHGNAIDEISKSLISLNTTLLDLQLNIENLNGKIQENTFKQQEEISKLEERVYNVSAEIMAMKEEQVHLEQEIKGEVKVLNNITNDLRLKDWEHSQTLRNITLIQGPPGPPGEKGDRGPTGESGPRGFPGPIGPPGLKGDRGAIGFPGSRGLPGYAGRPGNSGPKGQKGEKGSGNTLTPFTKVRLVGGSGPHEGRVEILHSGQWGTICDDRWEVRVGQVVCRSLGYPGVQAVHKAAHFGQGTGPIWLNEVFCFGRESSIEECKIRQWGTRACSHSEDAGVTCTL
The test is described as above. The following applies: analyte His9-hMSR1, NB = no binding observed; for kd: * = no dissociation observed, kd manually fixed at 1.00E−05; for ka: antibody-capture format; for Kd: calculated from kinetic rates; for t½: dissociative half-life. The procedure: as §1, §2

Test [3] deals with T2, PMA-treated THP-1 cells (endogenously expressed human MSR1) (Homo sapiens, UniProt P21757).
T2 construct: endogenous in cells; host or cells: THP-1 cells differentiated with PMA
T2 sequence (P21757 1-451): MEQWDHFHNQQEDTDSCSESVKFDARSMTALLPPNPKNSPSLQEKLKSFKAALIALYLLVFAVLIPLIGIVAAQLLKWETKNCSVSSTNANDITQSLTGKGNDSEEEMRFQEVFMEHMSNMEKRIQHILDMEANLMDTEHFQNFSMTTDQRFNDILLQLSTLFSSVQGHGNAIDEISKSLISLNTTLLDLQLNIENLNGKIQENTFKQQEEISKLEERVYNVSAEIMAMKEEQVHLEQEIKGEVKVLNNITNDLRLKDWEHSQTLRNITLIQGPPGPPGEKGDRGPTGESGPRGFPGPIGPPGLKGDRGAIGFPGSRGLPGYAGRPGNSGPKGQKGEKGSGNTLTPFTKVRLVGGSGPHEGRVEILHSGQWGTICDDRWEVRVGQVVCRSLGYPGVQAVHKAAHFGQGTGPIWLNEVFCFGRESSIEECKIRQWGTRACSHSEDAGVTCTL
Kind of test: Electrochemiluminescence antibody binding assay on MSR1-expressing cells. Format: cell-based.

Test [4] concerns B16F10.9 cells (MSR1 negative). Description: Flow cytometry binding, MSR1 negative cells. Format: cell-based, mouse. As to conditions: 10 μg/mL antibody. The method, then:
Relative cell surface binding of the anti-MSR1 antibodies to mouse MSR1 expressing cells was determined by flow cytometry using MSR1 positive RAW264.7 cells (ATCC, Catalog #TIB-71) and MSR1 negative B16F10.9 cells (Lin et al. 1998. PNAS 95:8829-8834). For the assay, cells were plated in PBS without calcium and magnesium (VWR Cat #45000-446) and 2% FBS (Saradigm Cat #1500-500) (Staining Buffer) in 96 well V-bottom plates (Axygen Scientific, Cat #P-96-450-V-C-S). To block binding to Fc receptors, RAW264.7 cells were incubated for 30 minutes at 4° C. with 500 μg/mL mouse IgG (Jackson ImmunoResearch, Cat #015-000-003) diluted in staining buffer, while B16F10.9 cells remained in staining buffer. Following Fc receptor blocking, 10 μg/mL of anti-MSR1 antibodies or an isotype control antibody were added to the cells and were subsequently incubated for 30 minutes on ice. For a positive control, a commercial anti-mouse MSR1 (Sino Biological, Cat #50129-R004) antibody was used, while a rabbit IgG antibody (Thermo Scientific, Cat #26102) was used as a negative control. […] Cells were subsequently washed and fixed using a 50% solution of Cytofix (BD Biosciences, Cat #554655) diluted in PBS. […] The signal to noise (S/N) was determined by calculating the ratio of the anti-MSR1 antibodies or the control antibodies MFI to the unstained sample MFI (Table 11).

For test [5], the target named is T1, His9-hMSR1 (human MSR1 extracellular domain). Kind of test: Biacore T200 surface plasmon resonance binding kinetics of anti-MSR1 antibody-drug conjugates and parental antibodies. The following applies: 25° C.; for ka: Table 19, antibody-LXR ADCs and unconjugated antibodies; for kd: Table 19, * = no dissociation observed, kd manually fixed at 1.00E−05. The gist of the method:
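Anti-MSR1 mAbs (ADCs with LXR or steroid linker-payloads, and unconjugated parents) captured on anti-human Fcγ surface; His9-tagged human MSR1 extracellular domain as analyte in HBS-ET, pH 7.4, 25° C. ka and kd from 1:1 fit with mass transport limitation; KD and t½ calculated from kinetic rates.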

The source of these data is patent publication US12497460B2, “Anti-MSR1 antibodies and methods of use thereof” (REGENERON PHARMACEUTICALS, INC., priority 2018, dated 2025).

The term Kd denotes the constant that tells how readily two partners part at equilibrium. In general, t½ refers to the time in which the quantity being followed falls by half.

HMM-mfMSR1 (monkey MSR1 extracellular domain), sequence (as listed by the source): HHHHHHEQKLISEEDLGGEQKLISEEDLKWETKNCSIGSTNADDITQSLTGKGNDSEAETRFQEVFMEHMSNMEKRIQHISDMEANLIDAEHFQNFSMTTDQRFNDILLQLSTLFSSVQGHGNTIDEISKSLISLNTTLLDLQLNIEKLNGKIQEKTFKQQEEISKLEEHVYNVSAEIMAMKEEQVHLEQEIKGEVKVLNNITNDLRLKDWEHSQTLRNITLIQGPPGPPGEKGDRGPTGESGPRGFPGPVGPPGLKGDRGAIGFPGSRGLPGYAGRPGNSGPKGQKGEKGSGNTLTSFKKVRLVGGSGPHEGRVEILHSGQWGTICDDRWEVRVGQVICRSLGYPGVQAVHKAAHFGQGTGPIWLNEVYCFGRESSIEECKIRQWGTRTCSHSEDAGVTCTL

B1: H1H27731P-N297Q: one of "Twelve anti-MSR1 antibodies"; "made with an N297Q single point mutation in human Fcγ portion" (antibody, V domains shown)
VH: QLQLQESGPGLVKPSETLSLTCTVSGGSISRISYYWGWIRQPPGKGLEWIGSIYDSGSTYYNPSLKSRVTISIDTSKNQFSLKLSSVTAADTAVYYCVRYSSSSAFAFDYWGQGTLVTVSS
VL: DIQMTQSPSSVSASVGDRVTITCRASQGISSWLAWYQQKPGKAPKLLIYAASSLQSGVPSRFSGSGSGTDFTLTISSLQPEDFATYYCQQANSFPFTFGPGTKVDIKR
Consider B1, for which the kd came to 4.69e-05 s⁻¹ in test [1] (25° C.); 0.000187 s⁻¹ in test [1] (37° C.); 2.24e-05 s⁻¹ in test [2] (25° C.); 0.000132 s⁻¹ in test [2] (37° C.); 1e-05 s⁻¹ in test [5]. Also, the ka in test [1] (25° C.) amounted to 98200 M⁻¹ s⁻¹; in test [1] (37° C.) it was 278000 M⁻¹ s⁻¹; in test [2] (25° C.), 129000 M⁻¹ s⁻¹; in test [2] (37° C.), 286000 M⁻¹ s⁻¹; in test [5], 117000 M⁻¹ s⁻¹. In test [3], the “Ratio of 11 nM Antibody Binding Signal (RLU) to isotype control, PMA-treated THP-1” value (“Ratio of 11 nM Antibody Binding Signal” below) worked out at 38. Also, in test [4], the “B16F10.9 MFI” value amounted to 3688.

B2: H1H27734P-N297Q: one of "Twelve anti-MSR1 antibodies"; "made with an N297Q single point mutation in human Fcγ portion" (antibody, V domains shown)
VH: EVQLVESRGGLVQPGGSLRLSCAASGFTFSSYAMSWVRQAPGKGLEWVSAISGSGGSTFYADSVKGRFTISRDNSKNTVYLQMNSLRAEDTAVYYCAKALVLRFLEWLGDYWGQGTLVTVSS
VL: DIQMTQSPSTLSASVGDRVTITCRASQSISSWLAWFQQKPGKAPKLLIYKASSLESGVPSRFSGSGSGTEFTLTISSLQPDDFATYYCQQYKSYWTFGQGTKVEIKR
B2: the kd was determined as 0.00291 s⁻¹ in test [1] (25° C.); 0.0032 s⁻¹ in test [1] (37° C.); 0.00111 s⁻¹ in test [2] (25° C.); 0.0019 s⁻¹ in test [2] (37° C.); 0.000596 s⁻¹ in test [5]. Further, the ka in test [1] (25° C.) is 423000 M⁻¹ s⁻¹; in test [1] (37° C.) it was 949000 M⁻¹ s⁻¹; in test [2] (25° C.) it was 420000 M⁻¹ s⁻¹; in test [2] (37° C.), 1.09e+06 M⁻¹ s⁻¹; in test [5], 77200 M⁻¹ s⁻¹. The “Ratio of 11 nM Antibody Binding Signal” value in test [3] is 21. In addition, the “B16F10.9 MFI” value in test [4] was 4505.

B3: H1H21227N-N297Q: "modified versions of 21227N (H1H21227N-N297Q and H1H21227N-N297D)"; anti-MSR1 antibody "with a N297Q single point mutation" (antibody, V domains shown)
VH: QVQLVQSGAEVKKPGASVKVSCKVSGYTLTELSIHWVRQVPGKGLEWMGGFDPEEGETIFAQEFRDRVTLTEDTSPDTAYMELSSLKSEDAAVYYCTTPRYCNNGICYDYWGQGTLVTVSS
VL: DIQMTQSPSSLSASVGDRVTITCRASQSISNYLNWYQQKPGKAPKLLIYTASSLQSGVPSRFSGSGSGTDFTLTISSLQTEDFATYYCQQSYSNFPITFGQGTRLEIKR
Consider B3, for which, in test [1] (25° C.), the kd turned out to be 7.51e-05 s⁻¹, the ka is 1.36e+06 M⁻¹ s⁻¹, the Kd is 55.3 pM and the t½ turned out to be 2.57 h. For the same molecule, in test [1] (37° C.), the kd is 1.08e-05 s⁻¹, the ka came to 2.74e+06 M⁻¹ s⁻¹, the dissociation constant Kd is 3.95 pM and the t½ was 17.82 h. In test [2] (25° C.), the kd was 4.89e-05 s⁻¹, the ka stood at 1.23e+06 M⁻¹ s⁻¹, the Kd is 39.7 pM and the t½ was found to be 3.93 h. Also, in test [2] (37° C.), the kd worked out at 1.23e-05 s⁻¹, the ka was 2.67e+06 M⁻¹ s⁻¹, the equilibrium dissociation constant (Kd) is 4.6 pM and the t½ came out at 15.7 h. The “Ratio of 11 nM Antibody Binding Signal” value in test [3] came out at 5. In addition, in test [4], the “B16F10.9 MFI” value was 3287 and the “B16F10.9 S/N” value is 1.

B4: H1H27739P-N297Q: anti-MSR1 antibody "made with an N297Q single point mutation in human Fcγ portion" (antibody, V domains shown)
VH: EVQLVESGGGLVQPGGSLRLSCTASGFTFSSYAMSWVRQAPGKGLEWVSAISGTGSSTYFTDSVKGRFAISRDNSKNTLYLQMNSLRAEDTAVYYCAKDGEWLSTVTLFDYWGQGTLVTVSS
VL: EIVMTQSPATLSVSPGERATLSCRASQSVSSNLAWYQQKPGQAPRLLIYGASTRATGIPARFSGSGSGTDFTLTISSLQSEDFALYYCQQYFIWPPHPTFGPGTKVDIKR
With B4, the kd came to 0.000144 s⁻¹ in test [1] (25° C.); 0.000842 s⁻¹ in test [1] (37° C.); 0.00103 s⁻¹ in test [2] (25° C.); 0.00288 s⁻¹ in test [2] (37° C.); 0.000555 s⁻¹ in test [5]. For the same molecule, the ka in test [1] (25° C.) is 352000 M⁻¹ s⁻¹; in test [1] (37° C.) it was 2.25e+06 M⁻¹ s⁻¹; in test [2] (25° C.) it was 375000 M⁻¹ s⁻¹; in test [2] (37° C.), 776000 M⁻¹ s⁻¹; in test [5] it was 119000 M⁻¹ s⁻¹. The “Ratio of 11 nM Antibody Binding Signal” value in test [3] stood at 9. Moreover, the “B16F10.9 MFI” value in test [4] is 3580.
